# According to patent US20090252717:
# Key:
# [1] = molecular target: immunoprecipitated endogenous mouse brain kinesin-1 (UniProt Q61768)
# [2] = molecular target: KHC-584 (first 584 amino acids of rat KHC, expressed in E. coli) (UniProt Q2PQA9)
# Chain of KHC-584 (first 584 amino acids of rat KHC, expressed in E. coli) (Q2PQA9 1-584): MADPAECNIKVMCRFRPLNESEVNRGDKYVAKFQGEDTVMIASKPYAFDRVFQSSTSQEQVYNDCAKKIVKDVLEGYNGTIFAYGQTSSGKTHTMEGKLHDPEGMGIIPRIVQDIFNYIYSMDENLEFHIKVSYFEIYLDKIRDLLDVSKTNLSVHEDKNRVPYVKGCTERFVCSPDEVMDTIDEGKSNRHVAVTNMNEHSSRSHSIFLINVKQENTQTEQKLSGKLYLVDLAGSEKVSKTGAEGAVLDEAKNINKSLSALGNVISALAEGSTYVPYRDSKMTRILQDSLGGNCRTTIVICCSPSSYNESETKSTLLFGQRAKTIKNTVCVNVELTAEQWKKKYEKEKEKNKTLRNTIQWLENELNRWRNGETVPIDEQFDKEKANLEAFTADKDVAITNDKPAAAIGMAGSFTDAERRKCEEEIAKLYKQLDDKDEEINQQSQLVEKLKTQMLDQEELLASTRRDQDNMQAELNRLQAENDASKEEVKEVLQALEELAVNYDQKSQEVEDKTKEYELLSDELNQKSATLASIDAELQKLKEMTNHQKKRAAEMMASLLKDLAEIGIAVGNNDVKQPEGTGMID
# Chain of recombinant 6-His-tagged JNK3 kinase (JNK3/SAPK1b, Upstate Biotechnology) (P53779 whole entry): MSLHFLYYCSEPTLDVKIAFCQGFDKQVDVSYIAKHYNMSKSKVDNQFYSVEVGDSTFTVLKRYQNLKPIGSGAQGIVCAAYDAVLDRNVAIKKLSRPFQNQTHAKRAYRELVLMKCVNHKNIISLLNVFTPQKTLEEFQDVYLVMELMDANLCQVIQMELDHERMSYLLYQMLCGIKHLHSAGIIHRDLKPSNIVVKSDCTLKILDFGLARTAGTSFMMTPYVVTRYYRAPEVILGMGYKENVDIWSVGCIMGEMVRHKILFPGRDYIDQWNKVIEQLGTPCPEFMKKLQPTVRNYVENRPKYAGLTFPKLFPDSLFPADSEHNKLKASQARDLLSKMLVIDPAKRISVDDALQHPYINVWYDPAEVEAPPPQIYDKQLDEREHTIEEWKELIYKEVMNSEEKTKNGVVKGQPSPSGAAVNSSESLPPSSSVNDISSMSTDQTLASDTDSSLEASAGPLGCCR
# Chain of immunoprecipitated endogenous mouse brain kinesin-1 (Q61768 whole entry, looked up): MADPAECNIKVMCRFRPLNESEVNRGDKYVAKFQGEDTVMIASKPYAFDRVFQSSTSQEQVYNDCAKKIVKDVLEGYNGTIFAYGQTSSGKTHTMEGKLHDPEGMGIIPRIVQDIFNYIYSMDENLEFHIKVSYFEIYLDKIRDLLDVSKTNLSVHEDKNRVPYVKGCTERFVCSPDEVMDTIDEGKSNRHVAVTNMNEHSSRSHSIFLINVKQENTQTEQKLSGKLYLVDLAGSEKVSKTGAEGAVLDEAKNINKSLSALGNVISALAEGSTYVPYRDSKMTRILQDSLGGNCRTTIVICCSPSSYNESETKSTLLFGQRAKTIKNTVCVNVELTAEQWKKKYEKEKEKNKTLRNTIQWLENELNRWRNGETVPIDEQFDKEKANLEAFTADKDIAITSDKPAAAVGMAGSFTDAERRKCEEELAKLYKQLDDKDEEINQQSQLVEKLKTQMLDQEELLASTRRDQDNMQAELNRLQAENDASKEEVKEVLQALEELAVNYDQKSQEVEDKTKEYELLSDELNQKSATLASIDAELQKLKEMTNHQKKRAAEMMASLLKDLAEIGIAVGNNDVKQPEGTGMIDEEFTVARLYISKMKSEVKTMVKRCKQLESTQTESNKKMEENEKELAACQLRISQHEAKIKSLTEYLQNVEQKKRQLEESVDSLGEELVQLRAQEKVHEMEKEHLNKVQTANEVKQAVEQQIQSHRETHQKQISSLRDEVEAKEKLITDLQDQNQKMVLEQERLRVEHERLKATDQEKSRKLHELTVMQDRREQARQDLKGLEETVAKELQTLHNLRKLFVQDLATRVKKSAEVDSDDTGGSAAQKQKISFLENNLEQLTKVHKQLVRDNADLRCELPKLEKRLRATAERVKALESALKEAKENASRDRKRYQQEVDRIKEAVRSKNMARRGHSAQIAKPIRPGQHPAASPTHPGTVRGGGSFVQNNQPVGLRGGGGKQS
substance,measurement,setting,value
"recombinant 6-His-tagged JNK3 kinase (JNK3/SAPK1b, Upstate Biotechnology)",in vitro kinase assay (32P incorporation),[1],both recombinant KHC and immunoprecipitated endogenous mouse brain kinesin-1 KHC could be phosphorylated by recombinant JNK
same,"in vitro phosphorylation, autoradiogram",[1],"Autoradiograms showed 32P incorporation in KHCs, but not KLCs"
same,in vitro kinase assay (32P incorporation),[2],both recombinant KHC and immunoprecipitated endogenous mouse brain kinesin-1 KHC could be phosphorylated by recombinant JNK
same,"in vitro phosphorylation, mass spectrometry of tryptic peptides",[2],A single tryptic peptide was identified with evidence of phosphorylation
